# Measured values: the supplement of paper PMC9170038
# Legend:
# Details in all cases: FMN input: 0 or 200 uM; Eterna round: R93 (includes R88 designs)
# MS2 coat protein [1] = assay: apparent KD of MS2 coat protein, switch OFF state (with FMN for OFF switches, without FMN for ON switches); designed switch direction (-1 OFF switch, 1 ON switch): 1; higher = weaker reporter binding
# Procedure, shortened: (§1)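 With or without constant ligand, designed RNA switches in 100 mM Tris-HCl pH 7.5, 80 mM KCl and 4 mM MgCl2 were titrated with SNAP-549-labelled MS2 coat protein. Concentrations went up in twofold steps from 0.7 or 1.5 nM to 3 µM. The switches had been transcribed on-chip from Illumina sequencing clusters, and apparent KD is the per-design median of normalised cluster binding-curve fits.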
# MS2 coat protein [2] = assay: apparent KD of MS2 coat protein, switch ON state; designed switch direction (-1 OFF switch, 1 ON switch): 1; higher = weaker reporter binding
# Procedure, shortened: as §1
# MS2 coat protein [3] = assay: apparent KD of MS2 coat protein, switch ON state; designed switch direction (-1 OFF switch, 1 ON switch): -1; higher = weaker reporter binding
# Procedure, shortened: as §1
# MS2 coat protein [4] = assay: apparent KD of MS2 coat protein, switch OFF state (with FMN for OFF switches, without FMN for ON switches); designed switch direction (-1 OFF switch, 1 ON switch): -1; higher = weaker reporter binding
# Procedure, shortened: as §1
Sequence,apparent KD of MS2 coat protein (MS2 coat protein [1]),apparent KD of MS2 coat protein (MS2 coat protein [2]),apparent KD of MS2 coat protein (MS2 coat protein [3]),apparent KD of MS2 coat protein (MS2 coat protein [4])
AAAAAAAAAGUAGAGGAUAUCCAAAUGGCUACAUGAGGAUCACCCAUGUGAAGAAAAGCACAUGAGGAGAAGGCUACAAAAAAAAA [Blender bender],21.7 nM,12.1 nM,–,–
AAAAAAAAAUCACAGGAUAUACGAAAAAAAACAUGAGGAUCACCCAUGUGAAAAAAAAAAAAAAAGUAGAAGGGUGAUCCAAAAAA,8.77 nM,12.6 nM,–,–
AAAAAACAAAGAGAGGAUAUCCUAAAAAAAACAUGAGGAUCACCCAUGUAAAGAAAUUUAAAAUGGGAGAAGGCUCUUUGAAAAA [Same State 2.6d ( Helter Skelter 1)],23.2 nM,12.4 nM,–,–
AAAAAACAUGAGGAUCACCCAUGUAAAAAAAACACAGGAUAUCCCUUUUUAAAAAAAAAAGGAGAAGGGUGAAAAA [Nob's Hobby 6 - Jieux - Same State 1],28 nM,29.8 nM,–,–
AAAAAACAUGAGGAUCACCCAUGUAACACUCAUGUAGGAUAUACAAAAAAAAAAAAAAAAGUAGAAGGACAAAAAA [Omei A variation 3],293 nM,143 nM,–,–
AAAAAACAUGAGGAUCACCCAUGUAAUACAACGUCAGGAUAUUGAUUUUAUUAUGUAUUGCAAGAAGGGACAAAAA [Same State 1.3 (Same State 1 - Omei 2 - one GC added)],144 nM,161 nM,–,–
"AAAAAACAUGAGGAUCACCCAUGUAUAAAAAUGGGAGGAUAUACUAAGACGAAAGUCAUAGUAGAAGGUCUAAAAA [76%, Meechl, 11]",241 nM,137 nM,–,–
AAAAAACAUGAGGAUCACCCAUGUCAAAAGACAUGAGGAUAUGUACAGACUUCGGUCUGUACAGAAGGCAUGAAAA [SS1 - 1011],524 nM,31.6 nM,–,–
AAAAAACAUGAGGAUCACCCAUGUCAAAAGACGUGAGGAUAUGUACAGACUUCGGUCUGUACAGAAGGCACGUCAA [SS1 - 1043],20.4 nM,15.9 nM,–,–
AAAAAACAUGAGGAUCACCCAUGUCCAAAAAAAAAAGGAUAUGCAAAAAAAAAAAAAAAAGCAGAAGGUUUAAAAA [Same State 1],45.1 nM,41.2 nM,–,–
AAAAAACAUGAGGAUCACCCAUGUCCUCGGACGUGAGGAUAUGUACAGACUUCGGUCUGUACAGAAGGCACAAAAA [SS1 - 1034],333 nM,1240 nM,–,–
AAAAAACAUGAGGAUCACCCAUGUCUUCGGACAUGAGGAUAUGUACAGACUUCGGUCUGUACAGAAGGCAUGAAAA [SS1 - 1013],39.5 nM,256 nM,–,–
AAAAAACAUGAGGAUCACCCAUGUGAAAAUAUGGGAGGAUAUCAUGGAAAAAAAAAAACAUGAGAAGGCCCAGAAA [SS! 1 MT 11],67.1 nM,13.7 nM,–,–
AAAAAACAUGAGGAUCACCCAUGUGACAACAUGGGAGGAUAUACGAAGACGAGAGUCGAAGUAGAAGGCCUAAAAG [Garnet 78],65.3 nM,117 nM,–,–
AAAAAACAUGAGGAUCACCCAUGUGAGAACAUGGGAGGAUAUACAAGGACGAGAGUCAAGGUAGAAGGCCUAAAGA [Mat - Same State 1 - Mod - D193],21.1 nM,545 nM,–,–
AAAAAACAUGAGGAUCACCCAUGUGAGAACAUGGGAGGAUAUACGAGGACGAGAGUCAGAGUAGAAGGCCUAAAAA [Garnet 66],51.7 nM,161 nM,–,–
AAAAAACAUGAGGAUCACCCAUGUGCAAAAUUCGCAGGAUAUUCCUCAAUUAAAUGAAAGGAAGAAGGGUGACAAA [Nob's Hobby 30 - Jieux - Same State 1],253 nM,92.6 nM,–,–
GGUUGGCGAGGAUAUACAUGAGGAUCACCCAUGUGAGAGAAAAAAGUGAGGAGGAGCAGUAGAAGGCGCUGACG [salish99-ex3-19],–,–,59.3 nM,147 nM
GUCGUGUGAGGAUAUGGAAAGAAGAAGAAAAGGUAGAAAAACUAGAAGGCACAUGAGGAUCACCCAUGUAAGAA [JR_Exc004_Sub1709],–,–,24.1 nM,22.3 nM
GUGUACAGAGGAUAUACAUGGGCAUGGAAACAUGCAUCCUCACAUGAGGAUCACCCAUGUAGAAGGCUGUACAC [Ex2: 708],–,–,21.6 nM,20.9 nM
GUGUACAGAGGAUAUAUAUGAGCUAGGAAACUAGCAACUUCACAUGAGGAUCACCCAUGUAGAAGGCUGUACAC [Ex2: 720],–,–,14.1 nM,14.3 nM
UAGAACCUAGGAUAUACUUGGAAAAAUAAUGCAAAGAUAUAACAUGAGGAUCACCCAUGUAGAAGGAGGAGUAA [JR_Exc002_Sub020],–,–,48.5 nM,35.9 nM
UCUUGACAUGAGGAUCACCCAUGUCAGGAUAUAGUAGGACAAAUAAAUAAAAGUAAUACUAGAAGGGAUAUGGG [Amethyst 52],–,–,29.8 nM,32.6 nM
UGCAGGUGAGGAUAUGCGGGCGAGCUAACAUAAGCAUCGAAGCAGAAGGCACAUGAGGAUCACCCAUGUAGUCC [Ex4_Neo],–,–,21 nM,27.2 nM
UGCAGGUGAGGAUAUGCGGGCGAUUAAACAUAUAAAUGCAAGCAGAAGGCACAUGAGGAUCACCCAUGUAGUCC [Ex4Try2_Neo],–,–,30.8 nM,29.6 nM
UGCUAGUCAGGAUAUACGAACAUGUCAAAAGACGUGAAGGGACAUGAGGAUCACCCAUGUAGAAGGGACUAGCA [salish99-Ex2-18],–,–,37.5 nM,121 nM
UGUUGGCGAGGAUAUACAUGAGGAUCACCCAUGUGAGAGAAAAAAGUGAGAAAGAAAAGUAGAAGGCGCUGACU [salish99-ex3-08],–,–,42.7 nM,211 nM
UUAAAACAUGAGGAUCACCCAUGUGAGGAUAUGCAAUACUAAUAUUAAAAUAAUUAUAGCAGAAGGCACAUAGU [JR_EXc001_Sub802],–,–,28.4 nM,60.4 nM
UUUAUGUGAGGAUAUGUACAGAAAAAAAAGGGUGUAACUGUACAGAAGGCACAUGAGGAUCACCCAUGUGCAUU [EX4 382: S S Pseudoknot 7],–,–,27.9 nM,21.8 nM
UUUCACCUAGGAUAUACAUGAGGAUCACCCAUGUGAGGCGAAGGACGGAGGGAUGGUAGUAGAAGGAGGACAAG [Mod of Gedier],–,–,19.5 nM,21.6 nM
